The text below walks through data of patent US20240067734A1.

The target of the assay is di muNKG2D ECD Fc avi (murine). As to the kind of experiment: ELISA; biotinylated antigen on streptavidin plate. A general note: An ELISA detects its analyte on a solid surface through an enzyme-linked reagent.
di muNKG2D ECD Fc avi (murine), sequence (chain, as listed by the source limits assumed): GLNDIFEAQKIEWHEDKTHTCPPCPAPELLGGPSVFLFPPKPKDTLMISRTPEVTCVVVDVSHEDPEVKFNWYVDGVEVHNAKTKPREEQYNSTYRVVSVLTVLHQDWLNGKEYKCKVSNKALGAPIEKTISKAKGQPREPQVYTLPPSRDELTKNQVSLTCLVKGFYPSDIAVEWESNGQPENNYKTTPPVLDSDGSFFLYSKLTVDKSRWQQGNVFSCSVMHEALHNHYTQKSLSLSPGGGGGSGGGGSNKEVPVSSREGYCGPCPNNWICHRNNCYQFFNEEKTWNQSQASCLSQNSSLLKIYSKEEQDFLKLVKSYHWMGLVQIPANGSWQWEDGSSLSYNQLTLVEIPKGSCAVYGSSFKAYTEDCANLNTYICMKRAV

B1: anti-NKG2D antibody clone 001 (antibody, V domains shown)
VH: QQLEQSGGGLVTPGGSLKLCCIGSGFDFNTYWMTWVRQAPGKGLEWIGCIHGGSSGSTYYASWVNGRFTLSRDIDQSTGCLQVNSLTAADTAMYYCARPGYRSWSKTFDLWGQGTMVTVSS
VL: DIQMTQSPSSLSASVGDRVTITCRASQDISESLNWYQQKPGKAPKLLIYAASSLQSGVPSRFSGSGSGTDYTLTISSLQPEDFATYYCQQANSFPLTFGGGTKVEIK
The molecule B1 gave an OD max of 0.2 OD.
